Substrate: CC(=O)SCCNC(=O)CCNC(=O)[C@H](O)C(C)(C)COP(=O)(O)OP(=O)(O)OC[C@H]1O[C@@H](n2cnc3c(N)ncnc32)[C@H](O)[C@@H]1OP(=O)(O)O
Test: purified protein, by the assay type
Settings: other: substrate of FabH; ping-pong mechanism, acetyl-CoA first substrate, malonyl-ACP second

B1: E. coli FabH (Escherichia coli K-12) (protein)
chain: MYTKIIGTGSYLPEQVRTNADLEKMVDTSDEWIVTRTGIRERHIAAPNETVSTMGFEAATRAIEMAGIEKDQIGLIVVATTSATHAFPSAACQIQSMLGIKGCPAFDVAAACAGFTYALSVADQYVKSGAVKYALVVGSDVLARTCDPTDRGTIIIFGDGAGAAVLAASEEPGIISTHLHADGSYGELLTLPNADRVNPENSIHLTMAGNEVFKVAVTELAHIVDETLAANNLDRSQLDWLVPHQANLRIISATAKKLGMSMDNVVVTLDRHGNTSAASVPCALDEAVRDGRIKPGQLVLLEAFGGGFTWGSALVRF
  Km: 34 µM
